The target in this test is CD3ε on wildtype primary human T cells (human) (UniProt P07766). Kind of test: cell-based or functional assay.

Where only a bound is given, the exact number is not on record here.

Chain of CAR4 (CD3ε.CD8α.4-1BB.CD3ζ), myc-tagged second-generation CAR with the OKT3 scFv, expressed on NK-92 cells (chain): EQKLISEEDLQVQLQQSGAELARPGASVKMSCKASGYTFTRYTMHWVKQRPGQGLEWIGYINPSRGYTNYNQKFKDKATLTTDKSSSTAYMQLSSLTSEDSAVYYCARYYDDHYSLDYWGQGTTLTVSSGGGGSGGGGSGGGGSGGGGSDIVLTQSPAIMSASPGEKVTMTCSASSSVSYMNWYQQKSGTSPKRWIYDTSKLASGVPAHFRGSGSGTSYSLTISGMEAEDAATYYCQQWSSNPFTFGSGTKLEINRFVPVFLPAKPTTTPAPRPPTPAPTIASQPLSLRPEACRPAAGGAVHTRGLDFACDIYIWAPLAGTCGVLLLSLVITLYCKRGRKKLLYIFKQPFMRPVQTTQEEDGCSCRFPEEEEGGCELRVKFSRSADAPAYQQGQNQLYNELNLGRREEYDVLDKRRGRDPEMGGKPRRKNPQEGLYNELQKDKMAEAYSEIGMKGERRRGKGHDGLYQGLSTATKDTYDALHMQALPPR

As for “CAR4 (CD3ε.CD8α.4-1BB.CD3ζ), myc-tagged second-generation CAR with the OKT3 scFv, expressed on NK-92 cells”, the average residual TCR+ T cells after co-culture in G-Rex, regimen 1:2A amounted to 0.026%; the average residual TCR+ T cells after co-culture in G-Rex, regimen 1:2B is 0.007%; the removal of residual wildtype T cells, 2 co-culture cycles was over 99.9%; the removal of residual wildtype T cells, single administration came to 98.6%.

The record behind these values is patent US20260130994A1.
